In patent US20150031755:

What was measured:
[1] = biological target: T1, human alpha-CGRP (L-peptide) (Homo sapiens) (UniProt P06881); assay: SPR; settings: L-RNA; 37 C
T1 sequence: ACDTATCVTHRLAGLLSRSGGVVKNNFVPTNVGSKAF

[2] = system: T2, rat amylin (L-peptide) (Rattus norvegicus); assay: cell_activity; settings: L-RNA, L-dC at 41, 5'-40 kDa PEG; cAMP inhibition, MCF-7 cells; p375 prints human amylin for this value but p377 indicates rat amylin
T2 sequence: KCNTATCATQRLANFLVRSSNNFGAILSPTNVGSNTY

Sequence: CGUGCUGUCGGAGACUACUCGUCGAGUAGAAAUAGGUCCCCUCCCACG [212-G1-001 (L)]
- Kd [1]: 5.12 nM

Sequence: CCGUGCUGUCGGAGACUACUCGUCGAGUAGAAAUAGGUCCCCUCCCACGG [226-F2-001 (L)]
- Kd [1]: 2.62 nM

Sequence: CCGUGCUGUCGGAGACUACUCGUCGAGUAGAAAUAGGUCCCCUCCCACGG [NOX-L41 (226-F2-001-D41-5'-40kDa-PEG)]
- IC50 [2]: 283 nM
